# According to US20250215083A1 (JIANGSU HENGRUI PHARMACEUTICALS, published 2025):
# How the values were obtained:
# hTSLP = hTSLP (human, UniProt Q969D9 29-159); assay: ELISA per WO2021139758 Test Example 4
# hIL5 = hIL5 (human, UniProt P05113 20-134); assay: ELISA per WO2021139758 Test Example 4
# hCTLA4 = target: T1, hCTLA4 (human, UniProt P16410 36-161); assay: ELISA per WO2021139758 Test Example 4
# T1 construct: purchased from Sino biology
# hPDL1 = target: T2, hPDL1 (human, UniProt Q9NZQ7 19-238); assay: ELISA per WO2021139758 Test Example 4
# T2 construct: purchased from Sino biology
# T2 sequence (Q9NZQ7 19-238 limits assumed): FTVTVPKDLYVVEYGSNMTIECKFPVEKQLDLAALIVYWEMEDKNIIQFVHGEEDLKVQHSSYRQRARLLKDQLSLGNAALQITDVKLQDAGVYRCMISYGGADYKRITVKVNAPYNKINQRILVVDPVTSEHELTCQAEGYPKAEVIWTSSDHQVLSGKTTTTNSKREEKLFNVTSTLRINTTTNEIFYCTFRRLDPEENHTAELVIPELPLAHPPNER
# human GPRC5D = human GPRC5D (human, UniProt Q9NZD1 1-345); assay: cell-based or functional assay
# Sequence of human GPRC5D (Q9NZD1 whole entry): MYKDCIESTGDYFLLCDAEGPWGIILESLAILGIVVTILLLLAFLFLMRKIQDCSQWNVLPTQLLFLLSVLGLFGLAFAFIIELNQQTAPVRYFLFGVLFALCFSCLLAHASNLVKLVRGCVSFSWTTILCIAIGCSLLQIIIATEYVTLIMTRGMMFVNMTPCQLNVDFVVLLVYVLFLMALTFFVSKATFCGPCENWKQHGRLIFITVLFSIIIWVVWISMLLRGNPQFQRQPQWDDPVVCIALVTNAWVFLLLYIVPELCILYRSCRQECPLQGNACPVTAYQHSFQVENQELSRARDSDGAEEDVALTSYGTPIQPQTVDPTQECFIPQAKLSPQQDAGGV
# T1 sequence (P16410 36-161 limits assumed): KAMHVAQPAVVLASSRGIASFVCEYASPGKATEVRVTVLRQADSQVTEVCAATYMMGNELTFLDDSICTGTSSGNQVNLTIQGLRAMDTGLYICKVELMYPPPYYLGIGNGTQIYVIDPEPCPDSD
Binder,EC50 (hCTLA4),EC50 (hPDL1),further results
HJ-3 (bispecific antibody) chain 1: not shown chain 2: DIQMTQSPSSVSASVGDRVTITCRASQDIANYLSWYQQKPGKSPKLLIYGTSNLEVGVPSRFSGSRSGTDFTLTISSLQPEDFATYYCLQDKEFPRTFGGGTKVEIKGGGGSSGAPRFLTRPLAFVVSVGKDATLSSQIVGNPTPQVSWEKDKQPVTAGARFRLAQDGDLYRLKILDLQLSDSGQYVSRARNAIGEAFACLGLQVDAEA chain 3: EVQLVQSGAEVKKPGSSVKVSCKASGYTFSNYLIEWVRQAPGQGLEWIGVIDPGVGDTNYNENFKGRATLTADKSTSTAYIELSSLRSEDTAVYYCAREDNTGTAFDYWGQGTTVTVSSASTKGPSVFPLAPSSKSTSGGTAALGCLVKDYFPEPVTVSWNSGALTSGVHTFPAVLQSSGLYSLSSVVTVPSSSLGTQTYICNVNHKPSNTKVDKKVEPKSCDKTHTCPPCPAPEAAGGPSVFLFPPKPKDTLMISRTPEVTCVVVDVSHEDPEVKFNWYVDGVEVHNAKTKPREEQYNSTYRVVSVLTVLHQDWLNGKEYKCKVSNKALPAPIEKTISKAKGQPREPQVCTLPPSREEMTKNQVSLSCAVKGFYPSDIAVEWESNGQPENNYKTTPPVLDSDGSFFLVSKLTVDKSRWQQGNVFSCSVMHEALHNHYTQKSLSLSPGKDYKDDDDK chain 4: SIVMTQTPLSLSVTPGQPASISCKASQSVSSDVTWYLQKPGQSPQLLIYYVSEHYTGVPDRFSGSGYGTDFTLKISRVEAEDVGVYYCQQHHRFPLTFGQGTKLEIKRTVAAPSVFIFPPSDEQLKSGTASVVCLLNNFYPREAKVQWKVDNALQSGNSQESVTEQDSKDSTYSLSSTLTLSKADYEKHKVYACEVTHQGLSSPVTKSFNRGEC,–,–,EC50 (hTSLP): 3.23 nM; EC50 (hIL5): 17.4 nM
HJ-5 (bispecific antibody) chain 1: not shown chain 2: DIQMTQSPSSVSASVGDRVTITCRASQDIANYLSWYQQKPGKSPKLLIYGTSNLEVGVPSRFSGSRSGTDFTLTISSLQPEDFATYYCLQDKEFPRTFGGGTKVEIKGGGGSSGAPRFLTRPKASVVSVGKDATLSSQIVGNPFPQVSWEKDKQPVTAGVRFRLAQDGDLYRLKILDLQLSDSGQYVSRARNAHGEAFACLGLQVDAEA chain 3: EVQLVQSGAEVKKPGSSVKVSCKASGYTFSNYLIEWVRQAPGQGLEWIGVIDPGVGDTNYNENFKGRATLTADKSTSTAYIELSSLRSEDTAVYYCAREDNTGTAFDYWGQGTTVTVSSASTKGPSVFPLAPSSKSTSGGTAALGCLVKDYFPEPVTVSWNSGALTSGVHTFPAVLQSSGLYSLSSVVTVPSSSLGTQTYICNVNHKPSNTKVDKKVEPKSCDKTHTCPPCPAPEAAGGPSVFLFPPKPKDTLMISRTPEVTCVVVDVSHEDPEVKFNWYVDGVEVHNAKTKPREEQYNSTYRVVSVLTVLHQDWLNGKEYKCKVSNKALPAPIEKTISKAKGQPREPQVCTLPPSREEMTKNQVSLSCAVKGFYPSDIAVEWESNGQPENNYKTTPPVLDSDGSFFLVSKLTVDKSRWQQGNVFSCSVMHEALHNHYTQKSLSLSPGK chain 4: SIVMTQTPLSLSVTPGQPASISCKASQSVSSDVTWYLQKPGQSPQLLIYYVSEHYTGVPDRFSGSGYGTDFTLKISRVEAEDVGVYYCQQHHRFPLTFGQGTKLEIKRTVAAPSVFIFPPSDEQLKSGTASVVCLLNNFYPREAKVQWKVDNALQSGNSQESVTEQDSKDSTYSLSSTLTLSKADYEKHKVYACEVTHQGLSSPVTKSFNRGEC,–,–,EC50 (hTSLP): 2.64 nM; EC50 (hIL5): 16 nM
PL-10 (bispecific antibody) chain 1: not shown chain 2: DIVLTQSPASLAVSPGQRATITCRASESVSIHGTHLMHWYQQKPGQPPKLLIYAASKLESGVPARFSGSGSGTDFTLTINPVEAEDTANYYCQQSFEDPLTFGQGTKLEIKGGGGSGIPPKIECLPIDISIDEGKVLTVASCFTGEPTPEVTWSTGGRKIHSQEQGRFHIENTDDSTTLTIKDVQKQDGGLYTLTLRNEFGSDSATVNIHIRSI chain 3: not shown chain 4: not shown,6.9 nM,0.6 nM,–
F2-3 (bispecific antibody) heavy 1: not shown light 1: DIQMTQSPSSVSASVGDRVTITCKASQNVGSNVAWYQQKPGKAPKALIYSASYRYSGVPSRFSGSGSGTDFTLTISSLQPEDFATYYCHQYNSYPPTFGQGTKLEIKRTVAAPSVFIFPPSDEQLKSGTASVVCLLNNFYPREAKVQWKVDNALQSGNSQESVTEQDSKDSTYSLSSTLTLSKADYEKHKVYACEVTHQGLSSPVTKSFNRGEC heavy 2: not shown light 2: not shown,–,–,"EC50 ratio (relative to JNJ-64407564), cytotoxic activity against NCI-H929 (human GPRC5D): 0.08; Lysis rate %, cytotoxic activity against NCI-H929 (human GPRC5D): 61.5%"
F4-7 (bispecific antibody) heavy 1: not shown light 1: not shown heavy 2: EVQLVQSGAEVKKPGASVKVSCKASGYSFTGYTMNWVRQAPGKRPEWMGLINPYTGGTRNNQKFKDRVTLTVDKSASTAYMELSSLRSEDTAVYYCTRWGLRLAMDYWGQGTTVTVSSASTKGPSVFPLAPSSKSTSGGTAALGCLVKDYFPEPVTVSWNSGALTSGVHTFPAVLQSSGLYSLSSVVTVPSSSLGTQTYICNVNHKPSNTKVDKKVEPKSCDKTHTCPPCPAPEAAGGPSVFLFPPKPKDTLMISRTPEVTCVVVDVSHEDPEVKFNWYVDGVEVHNAKTKPREEQYNSTYRVVSVLTVLHQDWLNGKEYKCKVSNKALPAPIEKTISKAKGQPREPQVCTLPPSRDELTKNQVSLSCAVKGFYPSDIAVEWESNGQPENNYKTTPPVLDSDGSFFLVSKLTVDKSRWQQGNVFSCSVMHEALHNHYTQKSLSLSPGK light 2: DIQMTQSPSSVSASVGDRVTITCKASQNVGSNVAWYQQKPGKAPKALIYSASYRYSGVPSRFSGSGSGTDFTLTISSLQPEDFATYYCHQYNSYPPTFGQGTKLEIKRTVAAPSVFIFPPSDEQLKSGTASVVCLLNNFYPREAKVQWKVDNALQSGNSQESVTEQDSKDSTYSLSSTLTLSKADYEKHKVYACEVTHQGLSSPVTKSFNRGEC,–,–,"EC50 ratio (relative to JNJ-64407564), cytotoxic activity against NCI-H929 (human GPRC5D): 0.16; Lysis rate %, cytotoxic activity against NCI-H929 (human GPRC5D): 68.3%"
F2-2 (bispecific antibody) heavy 1: not shown light 1: DVVLTQSPLSLPVTLGQPASISCKSSQSLLHSSGKTYLNWLLQRPGQSPRRLIYLVSKLDSGVPDRFSGSGSGTDFTLKISRVEAEDVGVYYCAQGTHFPRTFGGGTKVEIKRTVAAPSVFIFPPSDEQLKSGTASVVCLLNNFYPREAKVQWKVDNALQSGNSQESVTEQDSKDSTYSLSSTLTLSKADYEKHKVYACEVTHQGLSSPVTKSFNRGEC heavy 2: not shown light 2: not shown,–,–,"EC50 ratio (relative to JNJ-64407564), cytotoxic activity against NCI-H929 (human GPRC5D): 0.26; Lysis rate %, cytotoxic activity against NCI-H929 (human GPRC5D): 64.3%"

# More lines, main results first:
EC50 (hCTLA4),EC50 (hPDL1),Binder,further results
4.4 nM,0.5 nM,PL-13 (bispecific antibody) chain 1: not shown chain 2: DIVLTQSPASLAVSPGQRATITCRASESVSIHGTHLMHWYQQKPGQPPKLLIYAASKLESGVPARFSGSGSGTDFTLTINPVEAEDTANYYCQQSFEDPLTFGQGTKLEIKRTVASGIPPKIECLPIDISIDEGKVLTVASCFTGEPTPEVTWSTGGRKIHSQEQGRFHIENTDDSTTLTIKDVQKQDGGLYTLTLRNEFGSDSATVNIHIRSI chain 3: not shown chain 4: not shown,–
6 nM,1.3 nM,PL-14 (bispecific antibody) chain 1: not shown chain 2: DIVLTQSPASLAVSPGQRATITCRASESVSIHGTHLMHWYQQKPGQPPKLLIYAASKLESGVPARFSGSGSGTDFTLTINPVEAEDTANYYCQQSFEDPLTFGQGTKLEIKRTVASGIPPKIECLPIDISIDEGKVLTVASAFTGEPTPEVTWSTGGRKIHSQEQGRFHIENTDDSTTLTIKDVQKQDGGLYTLTLRNEFGSDSATVNIHIRSI chain 3: not shown chain 4: not shown,–
8 nM,0.5 nM,PL-12 (bispecific antibody) chain 1: not shown chain 2: DIVLTQSPASLAVSPGQRATITCRASESVSIHGTHLMHWYQQKPGQPPKLLIYAASKLESGVPARFSGSGSGTDFTLTINPVEAEDTANYYCQQSFEDPLTFGQGTKLEIKRTVASGIPPKIECLPIDISIDEGKCLTVASAFTGEPTPEVTWSTGGRKIHSQEQGRFHIENTDDSTTLTIKDVQKQDGGLYTLTLRNEFGSDSATVNIHIRSI chain 3: not shown chain 4: not shown,–
6.2 nM,1.4 nM,PL-17 (bispecific antibody) chain 1: not shown chain 2: DIVLTQSPASLAVSPGQRATITCRASESVSIHGTHLMHWYQQKPGQPPKLLIYAASKLESGVPARFSGSGSGTDFTLTINPVEAEDTANYYCQQSFEDPLTFGQGTKLEIKRTVASGIPPKIECLPIDISIDEGKVLTVASAFTGEPTPEVTWSTGGRKIHSQEQGRFHIENTDDSTTLTIKDVQKQDGGLYTLTLRNEFGSDSATVNIHIRSI chain 3: not shown chain 4: not shown,–
5.6 nM,0.6 nM,PL-11 (bispecific antibody) chain 1: not shown chain 2: DIVLTQSPASLAVSPGQRATITCRASESVSIHGTHLMHWYQQKPGQPPKLLIYAASKLESGVPARFSGSGSGTDFTLTINPVEAEDTANYYCQQSFEDPLTFGQGTKLEIKRTVASGIPPKIECLPIDISIDEGKVLTVASAFTGEPTPEVTWSTGGRKIHSQEQGRFHIENTDDSTTLTIKDVQKQDGGLYTLTLRNEFGSDSATVNIHIRSI chain 3: not shown chain 4: not shown,–
6.7 nM,1.6 nM,PL-18 (bispecific antibody) chain 1: not shown chain 2: DIVLTQSPASLAVSPGQRATITCRASESVSIHGTHLMHWYQQKPGQPPKLLIYAASKLESGVPARFSGSGSGTDFTLTINPVEAEDTANYYCQQSFEDPLTFGQGTKLEIKRTVASGIPPKIECLPIDISIDEGKCLTVASAFTGEPTPEVTWSTGGRKIHSQEQGRFHIENTDDSTTLTIKDVQKQDGGLYTLTLRNEFGSDSATVNIHIRSI chain 3: not shown chain 4: not shown,–
6.5 nM,1.6 nM,PL-19 (bispecific antibody) chain 1: not shown chain 2: DIVLTQSPASLAVSPGQRATITCRASESVSIHGTHLMHWYQQKPGQPPKLLIYAASKLESGVPARFSGSGSGTDFTLTINPVEAEDTANYYCQQSFEDPLTFGQGTKLEIKRTVASGIPPKIECLPIDISIDEGKVLTVASCFTGEPTPEVTWSTGGRKIHSQEQGRFHIENTDDSTTLTIKDVQKQDGGLYTLTLRNEFGSDSATVNIHIRSI chain 3: not shown chain 4: not shown,–
3.2 nM,1.4 nM,PL-15 (bispecific antibody) chain 1: not shown chain 2: DIVLTQSPASLAVSPGQRATITCRASESVSIHGTHLMHWYQQKPGQPPKLLIYAASKLESGVPARFSGSGSGTDFTLTINPVEAEDTANYYCQQSFEDPLTFGQGTKLEIKRTVASGIPPKIECLPIDISIDEGKCLTVASAFTGEPTPEVTWSTGGRKIHSQEQGRFHIENTDDSTTLTIKDVQKQDGGLYTLTLRNEFGSDSATVNIHIRSI chain 3: not shown chain 4: not shown,–
